Assay results reported in patent publication US20260201033A1 (LTZ THERAPEUTICS, published 2026).
Read-outs that look alike come from different tables or passages of the source. Values belong to the binder of their own block, whether it stands above or below them.

Legend:
[1] = biological target: T1, EpCAM on DLD-1 cells (human, UniProt P16422 24-314); assay: cell-based or functional assay
T1 sequence (looked up): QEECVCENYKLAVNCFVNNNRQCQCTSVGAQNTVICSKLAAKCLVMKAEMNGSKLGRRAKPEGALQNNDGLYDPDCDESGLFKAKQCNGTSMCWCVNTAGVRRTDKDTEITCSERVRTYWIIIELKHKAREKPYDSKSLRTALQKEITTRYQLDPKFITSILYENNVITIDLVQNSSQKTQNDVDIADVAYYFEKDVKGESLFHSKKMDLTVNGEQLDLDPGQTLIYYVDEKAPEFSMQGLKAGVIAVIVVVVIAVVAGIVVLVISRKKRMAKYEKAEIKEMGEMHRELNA

[2] = biological target: T1, EpCAM on DLD-1 cells; assay: flow cytometry on DLD-1 cells (EPCAM+), anti-human IgG PE
[3] = biological target: EGFR on DLD-1 cells (UniProt P00533 25-1210, limits assumed); assay: cell-based or functional assay
[4] = biological target: T2, human EGFR (ACROBiosystems, Cat #: EGR-H5222) (human, UniProt P00533 25-645); assay: ELISA, plate coated with human EGFR
T2 construct: Bought protein; also called recombinant human EGFR protein

[5] = biological target: T3, Human CLEC5A His Tag protein (ACROBiosystems, Cat #: CLA-H5243) (human, UniProt Q9NY25 28-188, limits assumed); assay: ELISA, plate coated with human CLEC5A
T3 construct: Bought protein with a His tag; also called recombinant human CLEC5A protein
T3 sequence: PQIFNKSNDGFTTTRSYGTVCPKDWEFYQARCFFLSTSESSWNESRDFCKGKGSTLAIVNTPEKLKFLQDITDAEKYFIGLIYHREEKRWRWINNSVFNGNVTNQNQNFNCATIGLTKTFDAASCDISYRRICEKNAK

[6] = biological target: T4, Human C-type lectin domain family 5 member A (CLEC5A), endogenous on human monocytes and M0 macrophages (human, UniProt Q9NY25 1-188); assay: flow cytometry on human M0 macrophages, anti-human IgG PE
T4 construct: Endogenous CLEC5A on primary human monocytes and monocyte-derived M0 macrophages; also called MDL-1; M0 macrophages (CLEC5A+) cells
T4 sequence: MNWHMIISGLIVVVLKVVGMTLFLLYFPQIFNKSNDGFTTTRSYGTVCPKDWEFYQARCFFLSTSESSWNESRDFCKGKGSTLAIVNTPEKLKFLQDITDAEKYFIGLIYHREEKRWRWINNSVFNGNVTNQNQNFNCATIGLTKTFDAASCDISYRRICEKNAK

[7] = biological target: T5, mouse CLEC5A (R&D Systems, Cat #: 8438-CL-050) (mouse, UniProt Q9R007 26-190, limits assumed); assay: ELISA, plate coated with mouse CLEC5A
T5 construct: Bought protein; also called recombinant mouse CLEC5A protein
T5 sequence: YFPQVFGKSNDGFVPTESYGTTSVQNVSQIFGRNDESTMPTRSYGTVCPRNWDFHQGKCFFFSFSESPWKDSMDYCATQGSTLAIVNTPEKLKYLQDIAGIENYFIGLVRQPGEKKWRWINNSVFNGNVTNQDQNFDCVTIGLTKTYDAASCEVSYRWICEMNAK

[8] = biological target: T3, Human CLEC5A His Tag protein …; assay: ELISA, plate coated with human CLEC5A; remark: listed apart in the source
[9] = biological target: T4, Human C-type lectin domain family 5 …; assay: flow cytometry on human M0 macrophages, anti-human IgG PE; remark: listed apart in the source
[10] = biological target: T4, Human C-type lectin domain family 5 …; assay: flow cytometry on human M0 macrophages (CLEC5A+), anti-human IgG PE, MFI (PE)
[11] = biological target: T6, recombinant human CLEC5A, His Tag (ACROBiosystems, Cat #: NC1-H52H4) (human, UniProt Q9NY25 28-188); assay: BLI, antibody 10 ug/ml captured on anti-human IgG Fc probe, analyte hCLEC5a; table row hCLEC5a 0.78 nM; all four rows print the same value
T6 construct: Analyte of the BLI assay; Its catalogue number differs from that of the ELISA antigen; also called human CLEC5A (BLI analyte)
T6 sequence: T3 sequence

[12] = biological target: T6, recombinant human CLEC5A, His Tag …; assay: BLI, antibody 10 ug/ml captured on anti-human IgG Fc probe, analyte hCLEC5a; table row hCLEC5a 1.56 nM; all four rows print the same value
[13] = biological target: T6, recombinant human CLEC5A, His Tag …; assay: BLI, antibody 10 ug/ml captured on anti-human IgG Fc probe, analyte hCLEC5a; table row hCLEC5a 3.12 nM; all four rows print the same value
[14] = biological target: T6, recombinant human CLEC5A, His Tag …; assay: BLI, antibody 10 ug/ml captured on anti-human IgG Fc probe, analyte hCLEC5a; table row hCLEC5a 6.25 nM; all four rows print the same value

- EC50 [2]: 0.67 nM
B1: anti-EpCAM antibody (Solitomab EpCAM binding part IgG form) (antibody, V domains shown)
VH: QVQLQQSGAELVRPGTSVKVSCKASGYAFTNYLIEWVKQRPGQGLEWIGVINPGSGGTNYNEKFKGKATLTADKSSSTAYMQLSSLTSDDSAVYFCARDGPWFAYWGQGTLVTVSA
VL: NIVMTQSPKSMSMSVGERVTLTCKASENVVTYVSWYQQKPEQSPKLLIYGASNRYTGVPDRFTGSGSATDFTLTISSVQAEDLADYHCGQGYSYPYTFGGGTKLEIK
notes: IgG form
- IC50 (nM), DLD-1 cell killing by M0 macrophages [1]: 0.0812 nM

- EC50 [4]: 0.12 µg/mL
- EC50 [5]: 0.081 µg/mL
- EC50 [6]: 19.5 nM
B2: EGFR2/5C7 (2+2 A) Fc-optimized (bispecific antibody, human IgG1, kappa)
heavy: QVQLQQSGAEVKKPGSSVKVSCKASGYTFTNYYIYWVRQAPGQGLEWIGGINPTSGGSNFNEKFKTRVTITADESSTTAYMELSSLRSEDTAFYFCTRQGLWFDSDGRGFDFWGQGTTVTVSSASTKGPSVFPLAPSSKSTSGGTAALGCLVKDYFPEPVTVSWNSGALTSGVHTFPAVLQSSGLYSLSSVVTVPSSSLGTQTYICNVNHKPSNTKVDKKVEPKSCDKTHTCPPCPAPELLAGPSVFLFPPKPKDTLMISRTPEVTCVVVDVSHEDPEVKFNWYVDGVEVHNAKTKPREEQYNSTYRVVSVLTVLHQDWLNGKEYKCKVSNKALPLPEEKTISKAKGQPREPQVYTLPPSRDELTKNQVSLTCLVKGFYPSDIAVEWESNGQPENNYKTTPPVLDSDGSFFLYSKLTVDKSRWQQGNVFSCSVMHEALHNHYTQKSLSLSPGK
light: DIQMTQSPSSLSASVGDRVTITCRSSQNIVHSNGNTYLDWYQQTPGKAPKLLIYKVSNRFSGVPSRFSGSGSGTDFTFTISSLQPEDIATYYCFQYSHVPWTFGQGTKLEIKRTVAAPSVFIFPPSDEQLKSGTASVVCLLNNFYPREAKVQWKVDNALQSGNSQESVTEQDSKDSTYSLSSTLTLSKADYEKHKVYACEVTHQGLSSPVTKSFNRGECGGGGSGGGGSGGGGSAIVMTQTPSSKSVPVGDTVTINCQASESVDRNNRLAWFQQKPGQPPKLLIYTTSTLASGVPSRFKGSGSGTHFTLTISDVVPDDAATYYCAGYRGAHTDGDAFGCGTEVVVKGGGGSGGGGSGGGGSGGGGSQSLEESGGDLVKPGASLTLTCTASGFSFSRSSYMCWVRQAPGKCLEWIGCLSVGDGHTYYASWAKGRFTISKTSSTSVTLQMTRLTAADTATYFCARAPSYSGDGGHGYDLWGPGTLVTVSS
notes: also called EGFR/CLEC5A (2+2 A) Fc-optimized antibody with EGFR portion of Nimotuzumab (EGFR2)
- IC50 (nM), DLD-1 cell killing by M0 macrophages [3]: 0.00471 nM

- EC50 [5]: 0.064 µg/mL
- EC50 [6]: 7.35 nM
- EC50 [2]: 1.1 nM
B3: EpCAM/5C7 (2+2 A) Fc-optimized (bispecific antibody, human IgG1, kappa)
heavy: QVQLQQSGAELVRPGTSVKVSCKASGYAFTNYLIEWVKQRPGQGLEWIGVINPGSGGTNYNEKFKGKATLTADKSSSTAYMQLSSLTSDDSAVYFCARDGPWFAYWGQGTLVTVSAASTKGPSVFPLAPSSKSTSGGTAALGCLVKDYFPEPVTVSWNSGALTSGVHTFPAVLQSSGLYSLSSVVTVPSSSLGTQTYICNVNHKPSNTKVDKKVEPKSCDKTHTCPPCPAPELLAGPSVFLFPPKPKDTLMISRTPEVTCVVVDVSHEDPEVKFNWYVDGVEVHNAKTKPREEQYNSTYRVVSVLTVLHQDWLNGKEYKCKVSNKALPLPEEKTISKAKGQPREPQVYTLPPSRDELTKNQVSLTCLVKGFYPSDIAVEWESNGQPENNYKTTPPVLDSDGSFFLYSKLTVDKSRWQQGNVFSCSVMHEALHNHYTQKSLSLSPGK
light: NIVMTQSPKSMSMSVGERVTLTCKASENVVTYVSWYQQKPEQSPKLLIYGASNRYTGVPDRFTGSGSATDFTLTISSVQAEDLADYHCGQGYSYPYTFGGGTKLEIKRTVAAPSVFIFPPSDEQLKSGTASVVCLLNNFYPREAKVQWKVDNALQSGNSQESVTEQDSKDSTYSLSSTLTLSKADYEKHKVYACEVTHQGLSSPVTKSFNRGECGGGGSGGGGSGGGGSAIVMTQTPSSKSVPVGDTVTINCQASESVDRNNRLAWFQQKPGQPPKLLIYTTSTLASGVPSRFKGSGSGTHFTLTISDVVPDDAATYYCAGYRGAHTDGDAFGCGTEVVVKGGGGSGGGGSGGGGSGGGGSQSLEESGGDLVKPGASLTLTCTASGFSFSRSSYMCWVRQAPGKCLEWIGCLSVGDGHTYYASWAKGRFTISKTSSTSVTLQMTRLTAADTATYFCARAPSYSGDGGHGYDLWGPGTLVTVSS
notes: also called EpCAM/CLEC5A (2+2 A) Fc-optimized antibody; EpCAM/CLEC5A bispecific antibody
- IC50 (nM), DLD-1 cell killing by M0 macrophages [1]: 0.0035 nM

- EC50 [7]: 0.194 nM
- EC50 [8]: 0.9 nM
- EC50 [5]: 0.158 µg/mL
- EC50 [9]: 3.93 nM
- EC50 [6]: 0.49 nM
- EC50 (read off the curve) [10]: ~0.8 nM
- Kd [11]: 0.15 nM
- koff [11]: 0.000189 s⁻¹
- kon [11]: 1.26e+06 M⁻¹ s⁻¹
- Kd [12]: 0.15 nM
- koff [12]: 0.000189 s⁻¹
- kon [12]: 1.26e+06 M⁻¹ s⁻¹
- Kd [13]: 0.15 nM
- koff [13]: 0.000189 s⁻¹
- kon [13]: 1.26e+06 M⁻¹ s⁻¹
- Kd [14]: 0.15 nM
- koff [14]: 0.000189 s⁻¹
- kon [14]: 1.26e+06 M⁻¹ s⁻¹
B4: 5C7, chimeric rabbit/human IgG1 anti-CLEC5A antibody (Fc-silenced) (antibody, V domains shown)
VH: QSLEESGGDLVKPGASLTLTCTASGFSFSRSSYMCWVRQAPGKGLEWIGCLSVGDGHTYYASWAKGRFTISKTSSTSVTLQMTRLTAADTATYFCARAPSYSGDGGHGYDLWGPGTLVTVSS
VL: AIVMTQTPSSKSVPVGDTVTINCQASESVDRNNRLAWFQQKPGQPPKLLIYTTSTLASGVPSRFKGSGSGTHFTLTISDVVPDDAATYYCAGYRGAHTDGDAFGGGTEVVVK
notes: also called ch5C7; 5C7 Fc-silenced
